Assay results reported in EP4424325A1 (JCR Pharmaceuticals Co., Ltd., dated 2024).

T1: recombinant monkey TfR, extracellular region of cynomolgus monkey transferrin receptor with a histidine tag … (cynomolgus monkey (Macaca fascicularis), UniProt Q5RDH6 89-760 (Pongo abelii entry))
T1 construct: also called monkey TfR-ECD(Histag); cynomolgus monkey TfR; not shown: N-terminal histidine tag
T1 chain: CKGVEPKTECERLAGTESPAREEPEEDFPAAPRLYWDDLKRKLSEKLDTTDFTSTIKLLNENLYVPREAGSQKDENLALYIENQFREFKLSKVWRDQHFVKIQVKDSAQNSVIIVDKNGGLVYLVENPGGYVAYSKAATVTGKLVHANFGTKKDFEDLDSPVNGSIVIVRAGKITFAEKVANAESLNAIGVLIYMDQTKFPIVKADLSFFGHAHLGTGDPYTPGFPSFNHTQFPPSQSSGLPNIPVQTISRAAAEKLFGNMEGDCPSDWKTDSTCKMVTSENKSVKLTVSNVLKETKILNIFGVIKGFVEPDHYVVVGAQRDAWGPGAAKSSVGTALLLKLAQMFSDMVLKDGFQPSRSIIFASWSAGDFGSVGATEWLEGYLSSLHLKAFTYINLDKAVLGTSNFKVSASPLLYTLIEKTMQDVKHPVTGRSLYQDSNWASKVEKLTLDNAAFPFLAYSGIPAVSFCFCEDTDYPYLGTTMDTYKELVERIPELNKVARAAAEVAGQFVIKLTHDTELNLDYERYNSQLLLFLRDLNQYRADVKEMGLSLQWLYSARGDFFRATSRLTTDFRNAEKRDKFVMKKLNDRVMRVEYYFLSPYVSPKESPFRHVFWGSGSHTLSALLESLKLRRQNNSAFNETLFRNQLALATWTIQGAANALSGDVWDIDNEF


What was measured:
[1] = molecular target: T1, recombinant monkey TfR, extracellular …; experiment: ratio calculated from the measured KD values
[2] = molecular target: T1, recombinant monkey TfR, extracellular …; experiment: BLI (OctetRED96), His-tagged TfR ECD on Ni-NTA sensor, peptide in solution
[3] = molecular target: T2, recombinant hTfR, extracellular region of human transferrin receptor with a histidine tag added at the … (human, UniProt P02786 89-760); experiment: as above
T2 construct: also called hTfR-ECD(Histag); human TfR; not shown: N-terminal histidine tag
Target sequence in this assay (P02786 89-760): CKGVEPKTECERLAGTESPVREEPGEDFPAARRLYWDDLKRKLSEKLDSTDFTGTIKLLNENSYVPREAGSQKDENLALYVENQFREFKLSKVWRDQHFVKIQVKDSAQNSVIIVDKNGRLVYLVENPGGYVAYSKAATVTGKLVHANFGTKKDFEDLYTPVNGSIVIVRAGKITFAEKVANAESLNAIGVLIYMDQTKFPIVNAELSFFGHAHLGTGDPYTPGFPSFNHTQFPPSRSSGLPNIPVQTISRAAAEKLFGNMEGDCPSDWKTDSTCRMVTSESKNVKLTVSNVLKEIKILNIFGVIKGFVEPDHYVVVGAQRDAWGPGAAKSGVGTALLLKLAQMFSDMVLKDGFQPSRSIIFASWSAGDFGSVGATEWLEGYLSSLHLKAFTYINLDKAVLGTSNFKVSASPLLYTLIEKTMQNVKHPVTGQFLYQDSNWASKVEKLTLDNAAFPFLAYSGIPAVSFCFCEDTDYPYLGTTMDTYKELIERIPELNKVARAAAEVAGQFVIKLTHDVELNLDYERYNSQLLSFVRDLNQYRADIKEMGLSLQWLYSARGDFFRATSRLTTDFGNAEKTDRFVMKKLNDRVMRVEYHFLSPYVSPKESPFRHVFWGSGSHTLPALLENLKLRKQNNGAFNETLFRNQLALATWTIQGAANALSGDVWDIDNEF

[4] = molecular target: T3, recombinant hTfR containing the extracellular region of hTfR (coated on the ELISA plate in Example 16) (human, UniProt P02786 89-760); experiment: ELISA, recombinant hTfR coated on plate, detection with anti-hIDS monoclonal antibody
T3 construct: That contradicts 'extracellular region' (residue 89 to the C-terminus elsewhere); also called human transferrin receptor

[5] = molecular target: T1, recombinant monkey TfR, extracellular …; experiment: BLI (OctetRED96), method of Example 7, His-tagged TfR ECD on Ni-NTA sensor
[6] = molecular target: T2, recombinant hTfR, extracellular region …; experiment: as above

| Binder | relative value of KD with monkey TfR (KD with hTfR taken as 1) [1] | Kd [2] [nM] | koff [2] [s⁻¹] | kon [2] [M⁻¹ s⁻¹] | Kd [3] [nM] | koff [3] [s⁻¹] | kon [3] [M⁻¹ s⁻¹] | EC50 [4] [nM] | further results |
| --- | --- | --- | --- | --- | --- | --- | --- | --- | --- |
| hTfR affinity peptide 5 (VHH, Same CDRs as peptide 3; The tag is stated only for peptide 1; Peptides 2 to 5 were obtained 'in the same manner'; also called clone 5; VHH(5)) VHH: QVQLVESGGGLVQPGGSLRLSCAASGSIFDIYVMRWYRQAPGKGLEWVASIYDGGRNDYDNVVKGRFTISRDNSKNTLYLQMNSLRAEDTAVYFCNVLTYAGRPYWGQGTQVTVSS | 1.27 | 17.5 | 0.00695 | 396000 | 13.8 | 0.00562 | 407000 | – | – |
| hTfR affinity peptide 6 (VHH, One amino acid of CDR2 of peptide 5 is substituted; also called VHH6) VHH: QVQLVESGGGLVQPGGSLRLSCAASGSIFDIYVMRWYRQAPGKGLEWVASIYAGGRNDYDNVVKGRFTISRDNSKNTLYLQMNSLRAEDTAVYFCNVLTYAGRPYWGQGTQVTVSS | – | – | – | – | 137 | 0.0586 | 428000 | – | – |
| hTfR affinity peptide 3 (VHH, The tag is stated only for peptide 1; Peptides 2 to 5 were obtained 'in the same manner'; also called clone 3; VHH(3)) VHH: QVQLVESGGGLVQPGESLRLSCAASGSIFDIYVMRWYRQAPGNQREWVASIYDGGRNDYDNVVKGRFTISRDNAKNTVHLQMNSLKPEDTAVYFCNVLTYAGRPYWGQGTQVTVSS | 1.02 | 10.7 | 0.0123 | 1.15e+06 | 10.5 | 0.006 | 571000 | – | – |
| VHH5-GS3-hIDS (other, VHH-enzyme fusion; also called VHH5-GS3-hI2S) QVQLVESGGGLVQPGGSLRLSCAASGSIFDIYVMRWYRQAPGKGLEWVASIYDGGRNDYDNVVKGRFTISRDNSKNTLYLQMNSLRAEDTAVYFCNVLTYAGRPYWGQGTQVTVSSGGGGSGGGGSGGGGSSETQANSTTDALNVLLIIVDDLRPSLGCYGDKLVRSPNIDQLASHSLLFQNAFAQQAVCAPSRVSFLTGRRPDTTRLYDFNSYWRVHAGNFSTIPQYFKENGYVTMSVGKVFHPGISSNHTDDSPYSWSFPPYHPSSEKYENTKTCRGPDGELHANLLCPVDVLDVPEGTLPDKQSTEQAIQLLEKMKTSASPFFLAVGYHKPHIPFRYPKEFQKLYPLENITLAPDPEVPDGLPPVAYNPWMDIRQREDVQALNISVPYGPIPVDFQRKIRQSYFASVSYLDTQVGRLLSALDDLQLANSTIIAFTSDHGWALGEHGEWAKYSNFDVATHVPLIFYVPGRTASLPEAGEKLFPYLDPFDSASQLMEPGRQSMDLVELVSLFPTLAGLAGLQVPPRCPVPSFHVELCREGKNLLKHFRFRDLEEDPYLPGNPRELIAYSQYPRPSDIPQWNSDKPSLKDIKIMGYSIRTIDYRYTVWVGFNPDEFLANFSDIHAGELYFVDSDPLQDHNMYNDSQGGDLFQLLMP | – | – | – | – | – | – | – | 1.09 | – |
| VHH6-GS3-hIDS (other, VHH-enzyme fusion; also called VHH6-GS3-hI2S) QVQLVESGGGLVQPGGSLRLSCAASGSIFDIYVMRWYRQAPGKGLEWVASIYAGGRNDYDNVVKGRFTISRDNSKNTLYLQMNSLRAEDTAVYFCNVLTYAGRPYWGQGTQVTVSSGGGGSGGGGSGGGGSSETQANSTTDALNVLLIIVDDLRPSLGCYGDKLVRSPNIDQLASHSLLFQNAFAQQAVCAPSRVSFLTGRRPDTTRLYDFNSYWRVHAGNFSTIPQYFKENGYVTMSVGKVFHPGISSNHTDDSPYSWSFPPYHPSSEKYENTKTCRGPDGELHANLLCPVDVLDVPEGTLPDKQSTEQAIQLLEKMKTSASPFFLAVGYHKPHIPFRYPKEFQKLYPLENITLAPDPEVPDGLPPVAYNPWMDIRQREDVQALNISVPYGPIPVDFQRKIRQSYFASVSYLDTQVGRLLSALDDLQLANSTIIAFTSDHGWALGEHGEWAKYSNFDVATHVPLIFYVPGRTASLPEAGEKLFPYLDPFDSASQLMEPGRQSMDLVELVSLFPTLAGLAGLQVPPRCPVPSFHVELCREGKNLLKHFRFRDLEEDPYLPGNPRELIAYSQYPRPSDIPQWNSDKPSLKDIKIMGYSIRTIDYRYTVWVGFNPDEFLANFSDIHAGELYFVDSDPLQDHNMYNDSQGGDLFQLLMP | – | – | – | – | – | – | – | 22.7 | – |
| VHH3-GS3-hSGSH (other, VHH-enzyme fusion; Purified on anti-FLAG M1 gel; also called VHH-GS3-hSGSH) DYKDDDDKQVQLVESGGGLVQPGESLRLSCAASGSIFDIYVMRWYRQAPGNQREWVASIYDGGRNDYDNVVKGRFTISRDNAKNTVHLQMNSLKPEDTAVYFCNVLTYAGRPYWGQGTQVTVSSGGGGSGGGGSGGGGSRPRNALLLLADDGGFESGAYNNSAIATPHLDALARRSLLFRNAFTSVSSCSPSRASLLTGLPQHQNGMYGLHQDVHHFNSFDKVRSLPLLLSQAGVRTGIIGKKHVGPETVYPFDFAYTEENGSVLQVGRNITRIKLLVRKFLQTQDDRPFFLYVAFHDPHRCGHSQPQYGTFCEKFGNGESGMGRIPDWTPQAYDPLDVLVPYFVPNTPAARADLAAQYTTVGRMDQGVGLVLQELRDAGVLNDTLVIFTSDNGIPFPSGRTNLYWPGTAEPLLVSSPEHPKRWGQVSEAYVSLLDLTPTILDWFSIPYPSYAIFGSKTIHLTGRSLLPALEAEPLWATVFGSQSHHEVTMSYPMRSVQHRHFRLVHNLNFKMPFPIDQDFYVSPTFQDLLNRTTAGQPTGWYKDLRHYYYRARWELYDRSRDPHETQNLATDPRFAQLLEMLRDQLAKWQWETHDPWVCAPDGVLEEKLSPQCQPLHNEL | – | – | – | – | – | – | – | – | Kd [5]: 1.16 pM; koff [5]: 4.81e-07 s⁻¹; kon [5]: 417000 M⁻¹ s⁻¹; Kd [6]: < 1 pM; koff [6]: < 1e-07 s⁻¹; kon [6]: 423000 M⁻¹ s⁻¹ |
| hTfR affinity peptide 4 (VHH, The tag is stated only for peptide 1; Peptides 2 to 5 were obtained 'in the same manner'; also called clone 4; VHH(4)) VHH: QVQLVESGGGLVQAGASLRLSCAASGRTDGIDRMAWFHQAPGEGREFVAGINKRGGGVDYAPGVKGRFTLSLDSDKNTLYLQMNNLRLEDTGVYSCAVGSGRIIVKSDTWGQGTQVTVSS | 0.83 | 9.92 | 0.00316 | 318000 | 11.9 | 0.0027 | 227000 | – | – |
| hTfR affinity peptide 1 (VHH, Expressed in CHO-S cells, purified on Anti-FLAG M1 agarose; also called clone 1; VHH(1)) VHH: QVQLVESGGGLVHPGGSLRLSCVASGTSFSLNVVTWYRQALGKQREWVATINQSEAPTYADSVKGRFTISRDGAKNTVYLQMNSLVTEDTALYYCYDRYNEIRGQGTQVTVSS | 1.06 | – | – | – | 97 | 0.0271 | 280000 | – | – |
| hTfR affinity peptide 2 (VHH, The tag is stated only for peptide 1; Peptides 2 to 5 were obtained 'in the same manner'; also called clone 2; VHH(2)) VHH: QVQLVESGGGLVHPGGSLSLSCAASGTSFSFNTVTWYRQALGKQREWVATINGSGAPTYADSVKGRFTISRDGAKNTVYLLMNSLVTEDTALYYCYDRYNEIRGQGTQVTVSS | 2.36 | – | – | – | 61.4 | 0.0146 | 237000 | – | – |
| VHH5-Tandem-GS3-hIDS (other, Two copies of peptide 5 in tandem, fused to hIDS; also called VHH5-Tandem-GS3-hI2S) QVQLVESGGGLVQPGGSLRLSCAASGSIFDIYVMRWYRQAPGKGLEWVASIYDGGRNDYDNVVKGRFTISRDNSKNTLYLQMNSLRAEDTAVYFCNVLTYAGRPYWGQGTQVTVSSGSQVQLVESGGGLVQPGGSLRLSCAASGSIFDIYVMRWYRQAPGKGLEWVASIYDGGRNDYDNVVKGRFTISRDNSKNTLYLQMNSLRAEDTAVYFCNVLTYAGRPYWGQGTQVTVSSGGGGSGGGGSGGGGSSETQANSTTDALNVLLIIVDDLRPSLGCYGDKLVRSPNIDQLASHSLLFQNAFAQQAVCAPSRVSFLTGRRPDTTRLYDFNSYWRVHAGNFSTIPQYFKENGYVTMSVGKVFHPGISSNHTDDSPYSWSFPPYHPSSEKYENTKTCRGPDGELHANLLCPVDVLDVPEGTLPDKQSTEQAIQLLEKMKTSASPFFLAVGYHKPHIPFRYPKEFQKLYPLENITLAPDPEVPDGLPPVAYNPWMDIRQREDVQALNISVPYGPIPVDFQRKIRQSYFASVSYLDTQVGRLLSALDDLQLANSTIIAFTSDHGWALGEHGEWAKYSNFDVATHVPLIFYVPGRTASLPEAGEKLFPYLDPFDSASQLMEPGRQSMDLVELVSLFPTLAGLAGLQVPPRCPVPSFHVELCREGKNLLKHFRFRDLEEDPYLPGNPRELIAYSQYPRPSDIPQWNSDKPSLKDIKIMGYSIRTIDYRYTVWVGFNPDEFLANFSDIHAGELYFVDSDPLQDHNMYNDSQGGDLFQLLMP | – | – | – | – | – | – | – | 0.077 | – |
